Data: patent US20050003403A1 (IBC PHARMACEUTICALS, published 2005)
Blank lines part the entries; values can stand above or below the binder they belong to.

Legend:
[1] = biological target: T1, carcinoembryonic antigen (CEA) (UniProt P06731 35-685, limits assumed); test: competitive ELISA, CEA-coated wells (0.5 ug/well), competitor HRP-conjugated hMN-14 IgG (1 nM)
T1 construct: Coated on ELISA wells (0.5 ug/well), injected in BIAcore, or mixed in solution for SE-HPLC
T1 sequence (looked up): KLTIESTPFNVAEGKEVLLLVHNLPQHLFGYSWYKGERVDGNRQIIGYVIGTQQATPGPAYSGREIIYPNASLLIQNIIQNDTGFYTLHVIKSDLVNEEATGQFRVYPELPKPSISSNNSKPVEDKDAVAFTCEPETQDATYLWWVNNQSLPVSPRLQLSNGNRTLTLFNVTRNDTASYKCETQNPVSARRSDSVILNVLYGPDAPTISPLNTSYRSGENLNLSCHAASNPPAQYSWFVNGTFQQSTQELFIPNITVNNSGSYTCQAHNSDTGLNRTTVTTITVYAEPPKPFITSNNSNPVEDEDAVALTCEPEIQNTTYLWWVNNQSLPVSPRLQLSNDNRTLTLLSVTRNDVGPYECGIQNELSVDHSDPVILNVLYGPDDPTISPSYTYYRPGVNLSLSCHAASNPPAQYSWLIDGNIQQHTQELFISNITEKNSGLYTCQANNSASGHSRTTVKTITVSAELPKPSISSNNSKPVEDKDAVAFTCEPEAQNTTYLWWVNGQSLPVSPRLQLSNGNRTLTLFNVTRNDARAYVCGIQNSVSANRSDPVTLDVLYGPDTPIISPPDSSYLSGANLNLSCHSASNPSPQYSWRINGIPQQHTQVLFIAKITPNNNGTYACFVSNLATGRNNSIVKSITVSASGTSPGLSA
Description: HRP-conjugated hMN14 IgG (1 nM) was mixed with either BS14HP, BS1.5H (a bispecific diabody, monovalent for CEA and monovalent for HSG, derived from the same variable domains as BS14HP) or hMN14 F(ab′)₂ at concentrations ranging from 1-250 nM, prior to incubation in CEA-coated (0.5 μg/well) wells. The % inhibition is plotted vs. nM concentration of sample.
The CEA binding of BS14HP was analyzed in a competitive ELISA and compared to BS1.5H and hMN-14 F(ab′)₂, which have one and two CEA binding groups, respectively (FIG. 6). HRP-conjugated hMN-14 IgG (1 nM) was mixed with either BS14HP, BS1.5H or hMN-14 F(ab′)₂ at concentrations ranging from 1 to 250 nM, prior to incubation in CEA-coated (0.5 μg/well) wells. The IC₅₀ for BS14HP was 2.7 nM which is close to 2.0 nM for hMN14 F(ab′)₂.

[2] = biological target: T1, carcinoembryonic antigen (CEA); test: BIAcore, hBS14 captured on HSG sensorchip, then CEA injected

B2: BS1.5H (bispecific antibody)
chain 1: MEVQLVESGGDLVKPGGSLKLSCAASGFTFSIYTMSWLRQTPGKGLEWVATLSGDGDDIYYPDSVKGRFTISRDNAKNSLYLQMNSLRAEDTALYYCARVRLGDWDFDVWGQGTTVSVSSGGGGSDIQLTQSPSSLSASVGDRVTITCKASQDVGTSVAWYQQKPGKAPKLLIYWTSTRHTGVPSRFSGSGSGTDFTFTISSLQPEDIATYYCQQYSLYRSFGQGTKVEIKRLEHHHHHH
chain 2: MEVQLVESGGGVVQPGRSLRLSCSASGFDFTTYWMSWVRQAPGKGLEWIGEIHPDSSTINYAPSLKDRFTISRDNAKNTLFLQMDSLRPEDTGVYFCASLYFGFPWFAYWGQGTPVTVSGGGGSDIVMTQSPSSLAVSPGERVTLTCKSSQSLFNSRTRKNYLGWYQQKPGQSPKLLIYWASTRESGVPDRFSGSGSGTDFTLTINSLQAEDVAVYYCTQVYYLCTFGAGTKLELKRLEHHHHHH
IC50 [1]: 10 nM

B3: BS14HP (bispecific antibody)
chain 1: EAEAEFMEVQLVESGGDLVKPGGSLKLSCAASGFTFSIYTMSWLRQTPGKGLEWVATLSGDGDDIYYPDSVKGRFTISRDNAKNSLYLQMNSLRAEDTALYYCARVRLGDWDFDVWGQGTTVSVSSGGGGSDIQLTQSPSSLSASVGDRVTITCKASQDVGTSVAWYQQKPGKAPKLLIYWTSTRHTGVPSRFSGSGSGTDFTFTISSLQPEDIATYYCQQYSLYRSFGQGTKVEIKRLEGGGSEVQLVESGGGVVQPGRSLRLSCSASGFDFTTYWMSWVRQAPGKGLEWIGEIHPDSSTINYAPSLKDRFTISRDNAKNTLFLQMDSLRPEDTGVYFCASLYFGFPWFAYWGQGTPVTVSVDHHHHHH
chain 2: EAEAEFDIQLTQSPSSLSASVGDRVTITCKASQDVGTSVAWYQQKPGKAPKLLIYWTSTRHTGVPSRFSGSGSGTDFTFTISSLQPEDIATYYCQQYSLYRSFGQGTKVEIKRGGGQFMEVQLVESGGGVVQPGRSLRLSCSASGFDFTTYWMSWVRQAPGKGLEWIGEIHPDSSTINYAPSLKDRFTISRDNAKNTLFLQMDSLRPEDTGVYFCASLYFGFPWFAYWGQGTPVTVSGGGGSDIVMTQSPSSLAVSPGERVTLTCKSSQSLFNSRTRKNYLGWYQQKPGQSPKLLIYWASTRESGVPDRFSGSGSGTDFTLTINSLQAEDVAVYYCTQVYYLCTFGAGTKLELKRLDHHHHHH
notes: Non-covalent heterodimer with two CEA sites and one HSG site; The alpha-factor signal peptide is removed on secretion; also called bispecific trivalent heterodimer; hMN-14 x hMN-14 x 679 produced in Pichia pastoris
IC50 [1]: 2.7 nM

Continued, values first:

IC50 [1]: 2 nM
B1: hMN-14 F(ab')2 (other)
VH: EVQLVESGGGVVQPGRSLRLSCSASGFDFTTYWMSWVRQAPGKGLEWIGEIHPDSSTINYAPSLKDRFTISRDNAKNTLFLQMDSLRPEDTGVYFCASLYFGFPWFAYWGQGTPVTVS
VL: DIQLTQSPSSLSASVGDRVTITCKASQDVGTSVAWYQQKPGKAPKLLIYWTSTRHTGVPSRFSGSGSGTDFTFTISSLQPEDIATYYCQQYSLYRSFGQGTKVEIKR
notes: F(ab')2 of humanized anti-CEA hMN-14, 100 kDa; The VH in the construct ends ...VTVS

binding result [2]: binds
B4: hBS14 (bispecific antibody)
chain 1: MEVQLVESGGDLVKPGGSLKLSCAASGFTFSIYTMSWLRQTPGKGLEWVATLSGDGDDIYYPDSVKGRFTISRDNAKNSLYLQMNSLRAEDTALYYCARVRLGDWDFDVWGQGTTVSVSSGGGGSDIQLTQSPSSLSASVGDRVTITCKASQDVGTSVAWYQQKPGKAPKLLIYWTSTRHTGVPSRFSGSGSGTDFTFTISSLQPEDIATYYCQQYSLYRSFGQGTKVEIKRLEGGGSEVQLVESGGGVVQPGRSLRLSCSASGFDFTTYWMSWVRQAPGKGLEWIGEIHPDSSTINYAPSLKDRFTISRDNAKNTLFLQMDSLRPEDTGVYFCASLYFGFPWFAYWGQGTPVTVSVDHHHHHH
chain 2: MDIQLTQSPSSLSASVGDRVTITCKASQDVGTSVAWYQQKPGKAPKLLIYWTSTRHTGVPSRFSGSGSGTDFTFTISSLQPEDIATYYCQQYSLYRSFGQGTKVEIKRGGGQFMEVQLVESGGGVVQPGRSLRLSCSASGFDFTTYWMSWVRQAPGKGLEWIGEIHPDSSTINYAPSLKDRFTISRDNAKNTLFLQMDSLRPEDTGVYFCASLYFGFPWFAYWGQGTPVTVSGGGGSDIVMTQSPSSLAVSPGERVTLTCKSSQSLFNSRTRKNYLGWYQQKPGQSPKLLIYWASTRESGVPDRFSGSGSGTDFTLTINSLQAEDVAVYYCTQVYYLCTFGAGTKLELKRLDHHHHHH
notes: 79.4 kDa heterodimer of polypeptide 1 and polypeptide 2, produced in SP2/0, YB2/0 or NS0 cells; Bivalent for CEA, monovalent for HSG; also called bispecific trivalent heterodimer expressed in myeloma cells; hMN-14 x hMN-14 x 679
